Target: T1, GST-tagged Rad27 (S. cerevisiae, UniProt P26793 1-382)
T1 sequence (looked up): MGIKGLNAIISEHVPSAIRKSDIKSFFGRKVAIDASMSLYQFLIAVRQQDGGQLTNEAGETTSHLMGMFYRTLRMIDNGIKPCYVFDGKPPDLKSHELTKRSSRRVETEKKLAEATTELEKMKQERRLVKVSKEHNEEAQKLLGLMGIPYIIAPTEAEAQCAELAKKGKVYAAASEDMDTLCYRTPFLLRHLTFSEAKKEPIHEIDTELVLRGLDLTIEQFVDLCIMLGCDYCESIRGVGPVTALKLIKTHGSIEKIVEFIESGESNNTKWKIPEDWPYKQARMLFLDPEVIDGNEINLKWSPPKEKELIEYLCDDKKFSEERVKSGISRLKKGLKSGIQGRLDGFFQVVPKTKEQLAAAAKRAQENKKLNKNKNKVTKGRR
Experiment: pull-down

B1: his-tagged Nej1 C-terminal fragment (residues 129-343) (domain or fragment, S. cerevisiae, UniProt Q06148 129-342, looked up)
chain: MFYMILQSLCMLLLKLVNLSTQYHYVQRDILNEKQKCLDFLLISLRDLDGGSKVISQWAPENSKNYESLQQCTDDDIIKKLLHKGKFQHQEFLADSLKTLLSLRNKFQDVSRFEESGELNKKERVRFPAVNHFYNDDFELQADPTNEARPNSRGKIKPKTDFKPKSRESSTSSQLRLENFSESEATPEKTKSSSSLVEEYPQKKRKFGKVRIKN
B1: binds.
